In PMC11297322, “MEILB2-BRME1 forms a V-shaped DNA clamp upon BRCA2-binding in meiotic recombination” (Nature Communications, 2023):
Where a chain is given by its changes, count along the chain named. Numbers in names are those of the source.

B1: BRME1MBD ΔRKTK (mouse BRME1 amino-acids 540–574) (domain or fragment, UniProt Q6DIA7 540-574, looked up)
chain: RMQDATDTVRGLVVELSGLNRLIMSTHRDLEAFKR
notes: BRME1 (BRCA2 and MEILB2-associating protein 1); The crystallography methods give 540–574 for the crystallised BRME1 chain, the results give 540–578; also called BRME1 540–574; BRME1MBD (in the crystallography methods); source: E. coli BL21 (DE3), purified with MEILB2 (Ni-NTA, amylose, ion exchange, TEV cleavage, SEC); not shown: His6, N-terminal, cleaved
B2: BRME1MBD (mouse BRME1 amino-acids 540–578) (domain or fragment, UniProt Q6DIA7 540-578, looked up)
chain: RMQDATDTVRGLVVELSGLNRLIMSTHRDLEAFKRRKTK
notes: source: E. coli BL21 (DE3), purified in complex with MEILB2 (Ni-NTA, amylose, ion exchange, TEV cleavage, SEC); not shown: His6, N-terminal, cleaved
B3: MBP-MEILB2 (mouse MEILB2 22–338 with N-terminal MBP-tag) (domain or fragment, UniProt Q9D4G2 22-338, looked up)
chain: EEFVKVRKKDLERLTTEVMQIRDFLPRILNGELLESFQKLKMVEKNLERKEQELEQLIMDREHFKARLETAQADSGREKKEKLALRQQLNEAKQQLLQQAEYCTQMGAVTCTLLWGVSSSEEVVKTILGGDKALKFFNITGQTMESFVKSLDGDVKEVDSDENQFVFALAGIVTNVAAIACGREFLVNSSRVLLDTMLQLLGDLKPGQCTKLKVLMLMSLYNVSINSKGLKYITESPGFIPLLWWLLSDPDAEVCLHTLRLIQSVVLEPDVFSKVASELQSSLPLQRILAMSKSRNSHLQSAAQELLEDLRALDCNV
notes: MEILB2 (HSF2BP), mouse, residues 22-338; also called MEILB2 with N-terminal MBP-tag; source: E. coli BL21 (DE3), purified in complex; not shown: MBP, N-terminal, kept
B4: MEILB2α (mouse MEILB2 amino-acids 22–81) (domain or fragment, UniProt Q9D4G2 22-81, looked up)
chain: EEFVKVRKKDLERLTTEVMQIRDFLPRILNGELLESFQKLKMVEKNLERKEQELEQLIMD
notes: MEILB2 (meiotic localiser of BRCA2; HSF2BP), mouse, residues 22-81: the α1 helix and the beginning of the α2 helix; Two copies stand in the 2:2 core complex with BRME1; also called HSF2BP; source: E. coli BL21 (DE3), purified with BRME1 (Ni-NTA, amylose, ion exchange, TEV cleavage, SEC); not shown: His6-MBP (pMAT11) or MBP (pRSF-Duet1), N-terminal, cleaved
B5: BRCA2MBD (mouse BRCA2 amino-acids 2232–2283, MEILB2-binding domain) (domain or fragment, UniProt P97929 2232-2283, looked up)
chain: PIKRSLLNEFDRIIESKGKSLTPSKSTPDGTVKDRSLFTHHMSLEPVTCGPF
notes: source: E. coli BL21 (DE3), purified in complex with MEILB2 (Ni-NTA, amylose, ion exchange, TEV cleavage, SEC); not shown: His6-MBP (pMAT11) or MBP (pRSF-Duet1), N-terminal, cleaved
B6: MEILB2 K26E (mouse MEILB2 22–338) (domain or fragment, UniProt Q9D4G2 22-338, looked up)
chain: B3 chain with K5E
notes: MEILB2 (HSF2BP), mouse, residues 22-338 with K26E; source: E. coli BL21 (DE3), purified in complex (Ni-NTA, amylose, ion exchange, TEV cleavage, SEC); not shown: His6-MBP (pMAT11) or MBP (pRSF-Duet1), N-terminal, cleaved
B7: MEILB2 (mouse MEILB2 amino-acids 22–338, the full structured region) (domain or fragment, UniProt Q9D4G2 22-338, looked up)
chain: B3 chain
notes: MEILB2 (HSF2BP), mouse, residues 22-338: α-helical region (α1, α2) and C-terminal ARM domain; the N-terminal 21 residues removed; also called HSF2BP; source: E. coli BL21 (DE3), purified in complex (Ni-NTA, amylose, ion exchange, TEV cleavage, SEC); not shown: His6-MBP (pMAT11) or MBP (pRSF-Duet1), N-terminal, cleaved
B8: MBP-BRCA2MBD (mouse BRCA2 2232–2283 with N-terminal MBP-tag) (domain or fragment, UniProt P97929 2232-2283, looked up)
chain: B5 chain
notes: also called BRCA2MBD with N-terminal MBP-tag; source: E. coli BL21 (DE3), purified in complex; not shown: MBP, N-terminal, kept

Assays:
[1] = molecular target: B4; experiment: crystal structure; MEILB2α–BRME1MBD (22–81; 540–574) 2:2 core complex; crystals grown on ice in 20 mM HEPES pH 7.5, 150 mM KCl; 1.50 Å; one 2:2 complex in the asymmetric unit; settings: both partners purified
[2] = molecular target: B6; experiment: not stated; BRCA2MBD–MEILB2–BRME1MBD complex with MEILB2 K26E; data in Supplementary Figs. 2 and 12c; settings: both partners purified
[3] = molecular target: B7; experiment: SEC-MALS; MEILB2–BRME1MBD complex at >5 mg/ml, Superdex 200 Increase 10/300 GL, 20 mM HEPES pH 7.5, 150 mM KCl, 2 mM DTT; settings: both partners purified
[4] = molecular target: B3; experiment: SEC-MALS; BRCA2MBD–MEILB2–BRME1MBD ternary complex at >5 mg/ml, Superdex 200 Increase 10/300 GL, 20 mM HEPES pH 7.5, 500 mM KCl, 2 mM DTT; settings: both partners purified
[5] = molecular target: B7; experiment: as above; settings: both partners purified
[6] = molecular target: the molecule itself; experiment: as above
[7] = molecular target: the molecule itself; experiment: crystal structure; MEILB2α–BRME1MBD (22–81; 540–574) 2:2 core complex; crystals grown on ice in 20 mM HEPES pH 7.5, 150 mM KCl; 1.50 Å; one 2:2 complex in the asymmetric unit
[8] = molecular target: B7; experiment: not stated; BRCA2MBD–MEILB2 in the absence of BRME1MBD, in solution; data in Supplementary Fig. 14; settings: both partners purified
[9] = molecular target: the molecule itself; experiment: not stated; BRCA2MBD–MEILB2–BRME1MBD complex with MEILB2 K26E; data in Supplementary Figs. 2 and 12c
[10] = molecular target: the molecule itself; experiment: SEC-MALS; MEILB2–BRME1MBD complex at >5 mg/ml, Superdex 200 Increase 10/300 GL, 20 mM HEPES pH 7.5, 150 mM KCl, 2 mM DTT
[11] = molecular target: the molecule itself; experiment: not stated; BRCA2MBD–MEILB2 in the absence of BRME1MBD, in solution; data in Supplementary Fig. 14

B1: binds [1].

With B2 the “stoichiometry N” value [2] was 1 BRME1MBD per MEILB2 (4:4 in the 2:4:4 complex), the “stoichiometry N” value [3] was 1 BRME1MBD per MEILB2 (2:2) and the “stoichiometry N” value [4] was 1 BRME1MBD per MEILB2 (4:4 in the 2:4:4 complex). The “stoichiometry N” value [5] was 1 BRME1MBD per MEILB2 (4:4 in the 2:4:4 complex).

With B3 the “stoichiometry N” value [6] was 4 MEILB2 chains in the 2:4:4 complex (with BRCA2MBD).

B4: binds [7].

With B5 the “stoichiometry N” value [2] was 0.5 BRCA2MBD per MEILB2 (2:4 in the 2:4:4 complex), the “stoichiometry N” value [8] was 0.5 BRCA2MBD per MEILB2 (4:8) and the “stoichiometry N” value [5] was 0.5 BRCA2MBD per MEILB2 (2:4 in the 2:4:4 complex).

In the case of B6, the “stoichiometry N” value [9] is reported as 4 MEILB2 chains in the 2:4:4 complex (with BRCA2MBD).

In the case of B7, the “stoichiometry N” value [10] is reported as 2 MEILB2 chains in the 2:2 complex, the “stoichiometry N” value [11] is reported as 8 MEILB2 chains in the 4:8 oligomer (with BRCA2MBD) and the “stoichiometry N” value [6] is reported as 4 MEILB2 chains in the 2:4:4 complex (with BRCA2MBD).

In the case of B8, the “stoichiometry N” value [4] is reported as 0.5 BRCA2MBD per MEILB2 (2:4 in the 2:4:4 complex).
